Assay [1] deals with IL1-induced downstream signaling (phospho-p38, NFκB) in THP-1 cells. Put plainly: IL1 signaling in AML (THP-1) cells, Western blot. The assay is classed as cell-based, human. To be noted: antibody 20 μg/ml, IL1β 100 ng/ml. As for the experimental part:
(§1) AML patient samples or cancer cells (AML, chronic myelogenous leukemia (CML), pancreatic, head and neck squamous cell carcinoma (HNSCC), bladder, non-small-cell lung carcinoma (NSCLC), colorectal and triple-negative breast cancer (TNBC)) were seeded in 6-well plates (5×10^5 cells/well) and incubated overnight at 37° C./5% CO2 in humified incubator. In experiments conducted in cancer cell lines, cells were washed 2× with PBS and serum-starved for 3 hours. Following, cells were treated with IL1RAP antibodies at concentration of 20 μg/ml and incubated for 1 h at 37° C./5% CO2 in humidified incubator. After 1 h, cells were treated with IL1β (Invivogen, cat: rcyec-hil1b), IL33 (Adipogen, cat: AG-40B-0160-C010) or IL36 cytokines (R@D, cat: 6836IL) at 100 ng/ml and incubated for 15 more minutes. Cells were harvested on ice after 1× wash with cold PBS and were centrifuged for 5 minutes at 5000 rpm at 4° C. Cells were then lysed with NP-40 buffer for 5 minutes on ice and centrifuged for 15 minutes at 15000 rpm at 4° C. Supernatants were collected and protein concentrations were determined by BCA (Thermofisher, Cat #PI23225). […] After 3× washes, ECL was applied (Thermofisher, Cat #32106) and proteins were detected after exposure to autoradioraphic films (Worldwide medical products, Cat #41101001) and protein intensity was quantitated using ImageJ software.
For orientation: A western blot detects proteins with antibodies after separation by electrophoresis.

The test system of assay [2] is IL1-induced downstream signaling (phospho-NFκB) in K562 cells. Briefly: IL1 signaling in CML (K562) cells, Western blot. Type of assay: cell-based, human. To be noted: antibody 20 μg/ml, IL1β 100 ng/ml. As for the experimental part: as §1
Assay [3] deals with IL1-induced downstream signaling (phospho-ERK, AKT, p38, NFκB) in A6L, CAL33, 5637, A549, Colo205, HCC70 cells. Briefly: IL1 signaling in solid tumor cancer cells, Western blot. To be noted: antibody 20 μg/ml. Type of assay: cell-based. As for the experimental part: as §1
Another assay deals with AML patient samples. Put plainly: Proliferation of AML patient samples, Cell-Titer Glo. The assay is classed as cell-based, human. Particulars: 1 μM, 7 days.
The subject of another assay is AML cells (THP-1). Briefly: Proliferation of AML cells (THP-1), Cell-Titer Glo. To be noted: 66 nM, 4 days. Type of assay: cell-based, human. How it is done: (§2) AML patient samples or cancer cells (AML and CML) were plated at density of 3×10^3 cells/well in two 96-well plates and incubated overnight at 37° C./5% CO2 in humidified incubator. The next day (Day 1) cells in one of the plates were treated with IL1RAP antibody at 10-150 μg/ml at a total volume of 100 μl. Plates were kept at 37° C./5% CO2 in humified for 3-6 days. Cells treated with vehicle or IgG served as controls and every treatment was conducted in triplicates. The second plate was treated on Day 1 with media and cell proliferation was measured on the same day by CellTiter-Glo (Promega, Cat #G7572). In more details, wells were mixed with equal volume (100 μl) of CellTiter-Glo and agitated for 2 minutes followed by 10 minutes incubation at room temperature in the dark. Luminescence signal was measured in Cytation™ (Biotek) plate reader. After 3-6 days, cell proliferation in the […] plates was measured separately in the same way.

The next assay has as its system CML cells (K562). Briefly: Proliferation of CML cells (K562), Cell-Titer Glo. The assay is classed as cell-based, human. Particulars: 333 nM, 3 days. As for the experimental part: as §2
The test system of the next assay is THP-1 cells. Briefly: Jurkat-Lucia NFAT-CD16 ADCC reporter assay against THP-1 cells. The assay is classed as cell-based, human. Particulars: THP-1 target cells. The text has this:
(§3) Methods: ADCC activity is mediated through binding of NK cell's CD16 receptors to the Fc region of antibodies. A Jurkat-Lucia NFAT-CD16 ADCC Reporter cell assay (Invivogen, Cat #jktl-nfat-cd16; https://www.invivogen.com/jurkat-lucia-nfat-adcc-adcp-cells) was used to analyze IL1RAP mAb STLX2012 for ADCC activity. Briefly, the Jurkat cell line was engineered to express the cell surface Fc receptor CD16A (FcγRIIIA) and the Lucia luciferase reporter gene. ADCC is triggered by CD16A cross-linking upon antigen-bound antibody binding at the surface of immune effector cells. Cells are maintained in the presence of zeocin (100 μg/ml) and blasticidin (10 μg/ml).
(Reporter assays use an easily measured gene product as a stand-in for the process of interest.)

A further assay relates to SK-MEL-5 cells. Put plainly: Jurkat-Lucia NFAT-CD16 ADCC reporter assay against SK-MEL-5 cells. The assay is classed as cell-based. Particulars: SK-MEL-5 target cells.
Text: as §3
The STLX2012-DLE antibody was then analyzed for ADCC activity using the Jurkat-Lucia NFAT-CD16 ADCC Reporter cell assay, described in Example 11 above.

Assay [4] relates to IL33-induced NFκB activity. Briefly: HEK-BlueIL33 NFκB Reporter Assay. The assay is classed as cell-based, human. To be noted: nM range, read-out: IC50, inhibition of IL33-induced NFκB activity. From the text:
HEK-Blue IL33 (Invivogen, Cat #hkb-hil33) cell line was used to monitor NFκB activity upon stimulation with IL33 cytokine. The secreted embryonic alkaline phosphatase reporter gene (SEAP) is inducible expressed under the control of IFN-β minimal promoter fused to NFκB/AP-1. HEK-BlueIL33 cells were also generated upon stable transfection with human IL1RL1 (ST2) gene. Specificity to IL33 cytokine was achieved by blockage of TNF-α and IL1 response. Cells are maintained in the presence of hygromycin (200 μg/ml), zeocin (100 μg/ml) and blasticidin (10 μg/ml).
For the functional assay, cells were plated at a density of 5×10^4 cells/well in 96-well plates. Cells were treated with each antibody at the highest concentration of 200 μg/ml followed by seven serial 1:3 dilutions and incubated for 45 minutes at 37° C./5% CO^2 in humified incubator. Cells were then stimulated with IL33 (12 μM) and incubated overnight at 37° C./5% CO2 in humified incubator. Every treatment was conducted in triplicates. Following, supernatants from each well were mixed with Quanti-Blue substrate (Invivogen, Cat #rep-qb1) according to manufacturer's recommendations and secreted SEAP was measured using spectrophotometer at 650 nm.

The values that follow come from patent publication US20240392013A1, “IL1RAP ANTIBODIES AND USES THEREOF” (STELEXIS THERAPEUTICS, LLC, priority 2021, published 2024).

For orientation: IC50 means the midpoint of a concentration-inhibition curve.

B1: 74804_12A21B: anti-IL1RAP mAb; VH SEQ ID NO:6, VL SEQ ID NO:23, κ light chain (antibody, V domains shown)
VH: QVQLLQSGAEVKKPGSSVKVSCKASGGTFSIYAIDWVRQAPGQGLEWMGGIIPIFGTANSAQKFQGRVTITADKSTSTAYMELSSLRSEDTAVYYCARNGATSDAFDMWGQGTMVTVSS
VL: EIVLTQSPGTLSLSPGERATLSCRASLSVSSNYLAWFQQRPGQAPRLLIHGVSRRATGIPDRFSGSGSGTDFTLTISRLEPEDFAVYYCQQYGSSPLTFGGGTKVEIK
modifications: 74804_12A21B VH and 74804_29D13A VH; 74804_12A21B VL
On to B1, for which, in assay [1], the “Inhibition of IL1 signaling (phosphorylation of p38 and NFκB)” value is on record as “inhibited IL1 signaling in these AML (THP-1) cells”. Besides, the “Inhibition of IL1 signaling (phosphorylation of NFκB)” value in assay [2] is recorded as “inhibited IL1 signaling in these CML (K562) cells”. Besides, the “Inhibition of IL1 signaling (phosphorylation of ERK, AKT, p38 and NFκB)” value in [3] was “inhibited IL1 signaling in solid tumor cancer cells”. For the same molecule, the “Inhibition of cell proliferation” value with AML patient samples, in the assay with AML cells (THP-1) and with CML cells (K562) was “inhibited cell proliferation” throughout. Also, the “ADCC activity (reporter)” value with THP-1 cells and with SK-MEL-5 cells was “showed ADCC activity” in each case.

B2: 74804_43F04A: anti-IL1RAP mAb; VH SEQ ID NO:7, VL SEQ ID NO:22, κ light chain (antibody, V domains shown)
VH: QVQLLQSGAEVKKPGSSVKVSCKASGGTFSIYAIDWVRQAPGQGLEWMGGIIPIFGTENSAQNFQGRITITADKSTNTAYMELSSLRSEDTAVYYCARNGATSDAFDIWGQGTMVTVFS
VL: EIVLTQSPGTLSLSPGERATLSCRASLSVSSNYLAWFQQRPGQAPRLLIYGVSRRATGIPDRFSGSGSGTDFTLTISRLEPEDFAVYYCQQYGSSPLTFGGGTKVEIK
modifications: 74804_43F04A VH; 74804_07K10A VL, 74804_29D13A VL and 74804_43F04A VL
B2: the IC50 in [4] amounted to 9.62 nM.
